The values that follow come from the supplement of paper PMC9112550, “Optimization of the antimicrobial peptide Bac7 by deep mutational scanning” (BMC Biology, 2022).

The data set relates to Escherichia coli TOP10. The experiment in a line: shrunken log2 fold change of peptide-encoding DNA abundance (4.5 h post-induction vs induction); higher = less antimicrobial activity (less host growth inhibition). The conditions noted are these: time post-induction: 4.5 h; library: site-saturation at positions 5, 18, 19, 20.
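Also: peptides expressed intracellularly from a pBAD plasmid library in pooled LB shake-flask culture, induced with 0.3% L-arabinose, DNA abundance read by NGS, three biological replicates, DESeq2 with apeglm shrinkage.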

RRIRFRPPRLPRPRPRPWKCPRP: the “shrunken log2 fold change” value turned out to be 0.0039.
With RRIRVRPPRLPRPRPRPWDFPRP, the “shrunken log2 fold change” value is -0.0763.
Turning to RRIRHRPPRLPRPRPRPWIHPRP, the “shrunken log2 fold change” value is -0.197.
With RRIRPRPPRLPRPRPRPIQDPRP, the “shrunken log2 fold change” value is -0.239.
As for RRIRRRPPRLPRPRPRPFPSPRP, the “shrunken log2 fold change” value is 0.114.
With RRIRMRPPRLPRPRPRPLNVPRP the figure was 0.0507; with RRIRPRPPRLPRPRPRPQICPRP, -0.0262; with RRIRWRPPRLPRPRPRPTRQPRP, 0.195.
Then RRIRKRPPRLPRPRPRPCGGPRP, with 0.225; and RRIRGRPPRLPRPRPRPMHEPRP, with 0.928.
Regarding RRIRQRPPRLPRPRPRPSMWPRP, the “shrunken log2 fold change” value is 0.0422.
Consider RRIRWRPPRLPRPRPRPIMMPRP, for which the “shrunken log2 fold change” value is -0.312.
With RRIRDRPPRLPRPRPRPFPEPRP the figure was -0.144.
Then RRIRNRPPRLPRPRPRPQFAPRP, with -0.0842.
RRIRKRPPRLPRPRPRPWNNPRP: the “shrunken log2 fold change” value amounted to 0.0165.
RRIRWRPPRLPRPRPRPAELPRP: the “shrunken log2 fold change” value is -0.0722.
Take RRIRPRPPRLPRPRPRPFMTPRP: the “shrunken log2 fold change” value was -0.511.
With RRIRIRPPRLPRPRPRPQIVPRP the figure was -0.167.
Then RRIRDRPPRLPRPRPRPRGMPRP, with 0.0251; and RRIRPRPPRLPRPRPRPIAIPRP, with 0.247.
Regarding RRIRCRPPRLPRPRPRPAPIPRP, the “shrunken log2 fold change” value was 1.74.
With RRIRLRPPRLPRPRPRPRWVPRP the figure was 0.237; with RRIRWRPPRLPRPRPRPCELPRP, 0.0544; with RRIRERPPRLPRPRPRPAQCPRP, -0.0401.
Regarding RRIRFRPPRLPRPRPRPRKCPRP, the “shrunken log2 fold change” value was -0.0611.
On to RRIRIRPPRLPRPRPRPNFMPRP, for which the “shrunken log2 fold change” value turned out to be 0.713.
Turning to RRIRHRPPRLPRPRPRPRIQPRP, the “shrunken log2 fold change” value was -0.267.
With RRIRERPPRLPRPRPRPNYHPRP the figure was -0.626.
Turning to RRIRRRPPRLPRPRPRPAYIPRP, the “shrunken log2 fold change” value is -0.201.
With RRIRARPPRLPRPRPRPRHGPRP the figure was 0.343; with RRIRWRPPRLPRPRPRPYGKPRP, 0.027; with RRIRDRPPRLPRPRPRPCVQPRP, 0.239.
In the case of RRIRARPPRLPRPRPRPAFRPRP, the “shrunken log2 fold change” value was determined as 0.355.
On to RRIRHRPPRLPRPRPRPYRDPRP, for which the “shrunken log2 fold change” value is -0.0135.
Then RRIRWRPPRLPRPRPRPCMLPRP, with -0.215; and RRIRVRPPRLPRPRPRPDHAPRP, with 0.27.
On to RRIRWRPPRLPRPRPRPHQSPRP, for which the “shrunken log2 fold change” value stood at 0.0383.
For the sequence RRIRWRPPRLPRPRPRPNNEPRP, the “shrunken log2 fold change” value was -0.0931.
With RRIRRRPPRLPRPRPRPKHMPRP, the “shrunken log2 fold change” value is 0.932.
As for RRIRSRPPRLPRPRPRPIRLPRP, the “shrunken log2 fold change” value is -0.27.
With RRIRKRPPRLPRPRPRPYDSPRP, the “shrunken log2 fold change” value is 0.0392.
Turning to RRIRCRPPRLPRPRPRPANVPRP, the “shrunken log2 fold change” value is -0.0934.
For RRIRNRPPRLPRPRPRPAMFPRP, the “shrunken log2 fold change” value was -0.204.
In the case of RRIRTRPPRLPRPRPRPICDPRP, the “shrunken log2 fold change” value was -0.168.
Then RRIRARPPRLPRPRPRPHPPPRP, with 0.706.
Consider RRIRRRPPRLPRPRPRPILVPRP, for which the “shrunken log2 fold change” value was -0.106.
Take RRIRRRPPRLPRPRPRPGFNPRP: the “shrunken log2 fold change” value came out at 0.0515.
As to RRIRYRPPRLPRPRPRPIQAPRP, the “shrunken log2 fold change” value is 0.107.
With RRIRNRPPRLPRPRPRPQKVPRP, the “shrunken log2 fold change” value is 0.007.
As to RRIRVRPPRLPRPRPRPDDCPRP, the “shrunken log2 fold change” value is -0.197.
Then RRIRDRPPRLPRPRPRPGQSPRP, with 0.116; and RRIRSRPPRLPRPRPRPRMIPRP, with -0.086.
With RRIRARPPRLPRPRPRPQLLPRP, the “shrunken log2 fold change” value came out at 0.527.
RRIRPRPPRLPRPRPRPCMCPRP: the “shrunken log2 fold change” value was -0.0305.
Regarding RRIRSRPPRLPRPRPRPYTDPRP, the “shrunken log2 fold change” value is -1.11.
Then RRIRTRPPRLPRPRPRPMGTPRP, with -0.0546; and RRIRWRPPRLPRPRPRPRHMPRP, with -0.139; and RRIRTRPPRLPRPRPRPAKCPRP, with 0.0582.
Take RRIRYRPPRLPRPRPRPKWSPRP: the “shrunken log2 fold change” value is -0.0252.
Then RRIRSRPPRLPRPRPRPCSDPRP, with 0.21.
RRIRARPPRLPRPRPRPISGPRP: the “shrunken log2 fold change” value was -0.00122.
Regarding RRIRDRPPRLPRPRPRPPIGPRP, the “shrunken log2 fold change” value is 0.849.
With RRIRMRPPRLPRPRPRPQGHPRP the figure was 0.0616.
Regarding RRIRWRPPRLPRPRPRPIFHPRP, the “shrunken log2 fold change” value was -0.101.
Then RRIRIRPPRLPRPRPRPIHWPRP, with -0.0782.
Consider RRIRGRPPRLPRPRPRPHMVPRP, for which the “shrunken log2 fold change” value is -0.0598.
RRIRDRPPRLPRPRPRPHHRPRP: the “shrunken log2 fold change” value was -0.277.
RRIRGRPPRLPRPRPRPLLGPRP: the “shrunken log2 fold change” value was 0.833.
As to RRIRLRPPRLPRPRPRPPMWPRP, the “shrunken log2 fold change” value turned out to be 0.26.
As for RRIRYRPPRLPRPRPRPQQPPRP, the “shrunken log2 fold change” value is 0.0699.
Consider RRIRVRPPRLPRPRPRPWPAPRP, for which the “shrunken log2 fold change” value was -0.0676.
Then RRIRWRPPRLPRPRPRPDCSPRP, with 0.113.
RRIRGRPPRLPRPRPRPEHGPRP: the “shrunken log2 fold change” value came to 0.602.
As to RRIRPRPPRLPRPRPRPINGPRP, the “shrunken log2 fold change” value is -0.482.
Then RRIRFRPPRLPRPRPRPKMHPRP, with 0.0482; and RRIRGRPPRLPRPRPRPGCSPRP, with 0.867; and RRIRPRPPRLPRPRPRPHSCPRP, with -0.11.
For RRIRHRPPRLPRPRPRPWNFPRP, the “shrunken log2 fold change” value is -0.0202.
Regarding RRIRKRPPRLPRPRPRPGCVPRP, the “shrunken log2 fold change” value was 1.16.
Then RRIRFRPPRLPRPRPRPNDRPRP, with -0.108; and RRIRTRPPRLPRPRPRPLSQPRP, with -0.0906; and RRIRWRPPRLPRPRPRPPRHPRP, with 0.608.
Then RRIRHRPPRLPRPRPRPWMRPRP, with 0.101; and RRIRCRPPRLPRPRPRPQFAPRP, with -0.239.
Consider RRIRKRPPRLPRPRPRPHQQPRP, for which the “shrunken log2 fold change” value is -0.0506.
Then RRIRHRPPRLPRPRPRPSCLPRP, with -0.4; and RRIRNRPPRLPRPRPRPYYQPRP, with -0.697; and RRIRKRPPRLPRPRPRPMFLPRP, with -0.0587.
With RRIRYRPPRLPRPRPRPTGYPRP the figure was -1.16.
RRIRNRPPRLPRPRPRPKIVPRP: the “shrunken log2 fold change” value was -0.0195.
Turning to RRIRERPPRLPRPRPRPLLGPRP, the “shrunken log2 fold change” value is -0.144.
Take RRIRDRPPRLPRPRPRPKQEPRP: the “shrunken log2 fold change” value is 0.00491.
With RRIRHRPPRLPRPRPRPSKNPRP the figure was -0.163; with RRIRGRPPRLPRPRPRPGFEPRP, 0.813; with RRIRARPPRLPRPRPRPMRTPRP, 0.802.
With RRIRARPPRLPRPRPRPKMAPRP, the “shrunken log2 fold change” value turned out to be 0.291.
For the sequence RRIRYRPPRLPRPRPRPKSDPRP, the “shrunken log2 fold change” value was -0.299.
Then RRIRIRPPRLPRPRPRPKHPPRP, with -0.0675; and RRIRNRPPRLPRPRPRPCYTPRP, with -0.0126.
In the case of RRIRYRPPRLPRPRPRPPKGPRP, the “shrunken log2 fold change” value is -0.163.
RRIRLRPPRLPRPRPRPFQDPRP: the “shrunken log2 fold change” value stood at 0.000192.
Regarding RRIRLRPPRLPRPRPRPPLPPRP, the “shrunken log2 fold change” value worked out at 0.502.
With RRIRRRPPRLPRPRPRPLCSPRP the figure was -0.255; with RRIRWRPPRLPRPRPRPMKAPRP, 0.294.
For the sequence RRIRCRPPRLPRPRPRPMSDPRP, the “shrunken log2 fold change” value came out at 0.113.
With RRIRGRPPRLPRPRPRPDYRPRP the figure was 0.127; with RRIRQRPPRLPRPRPRPSTTPRP, -0.572; with RRIRTRPPRLPRPRPRPACPPRP, 0.178.
Then RRIRFRPPRLPRPRPRPPEIPRP, with -0.204; and RRIRSRPPRLPRPRPRPVGFPRP, with 0.334; and RRIRLRPPRLPRPRPRPGYDPRP, with -0.233.
For the sequence RRIRHRPPRLPRPRPRPLLMPRP, the “shrunken log2 fold change” value is -0.0151.
With RRIRGRPPRLPRPRPRPNLGPRP the figure was 0.191; with RRIRERPPRLPRPRPRPAPRPRP, 0.734.
Consider RRIRHRPPRLPRPRPRPQHRPRP, for which the “shrunken log2 fold change” value was -0.355.
Turning to RRIRDRPPRLPRPRPRPMYCPRP, the “shrunken log2 fold change” value is -0.00227.
With RRIRYRPPRLPRPRPRPIHHPRP the figure was -1.62; with RRIRQRPPRLPRPRPRPLHNPRP, 0.00263.
For the sequence RRIRCRPPRLPRPRPRPGKMPRP, the “shrunken log2 fold change” value was -0.055.
Consider RRIRCRPPRLPRPRPRPWTFPRP, for which the “shrunken log2 fold change” value is -0.126.
Consider RRIRPRPPRLPRPRPRPDCPPRP, for which the “shrunken log2 fold change” value was -0.0368.
With RRIRGRPPRLPRPRPRPGRVPRP, the “shrunken log2 fold change” value came out at 0.554.
On to RRIRVRPPRLPRPRPRPWWEPRP, for which the “shrunken log2 fold change” value worked out at 0.161.
With RRIRTRPPRLPRPRPRPKDYPRP, the “shrunken log2 fold change” value was -0.115.
In the case of RRIRRRPPRLPRPRPRPFNIPRP, the “shrunken log2 fold change” value was -0.491.
